From PMC3168947 (Molecular cell, 2011)

Columns and labels:
ClpA6 = ClpA6 (Escherichia coli, UniProt P0A8Q6+P0ABH9, C101S/C73V/E96C); type: binding, E. coli
^ΔLClpA6 = assay: Binding of ClpS*^F to ^ΔLClpA6, with or without peptide; parameters: species or system E. coli; settings: 20 μM LLYVQRDSKEC; Fig. 3E; in words
crystal structure = target: the molecule itself; assay: crystal structure
ClpAP [1] = settings: H66A mutation; in words; ref Wang et al., 2008a; cited from earlier work
ClpA = assay: FeBABE cleavage of ClpA by FeBABE-modified ^Q12CClpS; parameters: species or system E. coli; settings: SDS-PAGE; in words
ClpAP [2] = assay: ClpAPS degradation of YLFVQELA-GFP; type: biochemical, E. coli; settings: YLFVQELA-GFP degradation; Vmax = Etotal•kdeg/(1+K2); KM = K1•K2/(1+K2); Fig. 4B
ClpAP [3] = settings: ref Dougan et al., 2002; cited from earlier work

Sequence of ClpA6 (P0ABH9 whole entry): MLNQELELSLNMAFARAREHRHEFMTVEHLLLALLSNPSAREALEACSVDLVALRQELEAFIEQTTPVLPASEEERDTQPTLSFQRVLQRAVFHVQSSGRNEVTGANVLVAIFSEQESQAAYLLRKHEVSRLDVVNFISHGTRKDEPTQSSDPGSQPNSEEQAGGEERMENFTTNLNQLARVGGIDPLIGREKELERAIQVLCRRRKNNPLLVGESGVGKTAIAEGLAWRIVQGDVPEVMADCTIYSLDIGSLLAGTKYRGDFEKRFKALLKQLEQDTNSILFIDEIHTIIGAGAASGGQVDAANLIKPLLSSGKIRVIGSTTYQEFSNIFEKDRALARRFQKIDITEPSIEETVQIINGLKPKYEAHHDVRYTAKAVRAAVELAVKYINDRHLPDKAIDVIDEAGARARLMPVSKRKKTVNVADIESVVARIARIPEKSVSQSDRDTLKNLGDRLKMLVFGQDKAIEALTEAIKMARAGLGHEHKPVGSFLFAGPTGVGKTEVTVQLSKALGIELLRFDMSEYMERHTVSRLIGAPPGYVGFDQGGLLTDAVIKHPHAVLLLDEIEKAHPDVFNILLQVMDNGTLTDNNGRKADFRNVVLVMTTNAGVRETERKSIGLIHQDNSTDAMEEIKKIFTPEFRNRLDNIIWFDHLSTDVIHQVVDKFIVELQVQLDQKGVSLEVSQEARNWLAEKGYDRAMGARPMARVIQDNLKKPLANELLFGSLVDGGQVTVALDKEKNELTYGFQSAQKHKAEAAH
Sequence of ClpA6 (P0A8Q6 whole entry C73V/E96C/C101S): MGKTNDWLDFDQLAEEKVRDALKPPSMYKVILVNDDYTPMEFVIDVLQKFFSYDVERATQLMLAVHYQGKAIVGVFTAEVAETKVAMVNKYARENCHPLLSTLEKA

Molecule: LLYVQRDSKEC
- ClpA6 bound ClpS*^F more tightly, fold (ClpA6; excess peptide, compared with MLYVQRDSKEC peptide or absence of ligand): at least 9 fold
- Kapp of ClpA6 for ClpS*^F in presence of peptide (ClpA6; fluorescence anisotropy, 200 nM ClpS*^F, 20 μM peptide, ATPγS, Fig. 3A): < 20 nM
- enhancement of ClpS*^F binding to ^ΔLClpA6 by N-end-rule peptide (^ΔLClpA6): enhanced binding of ClpS*^F to ClpA6 but not to ^ΔLClpA6

B1: E. coli ClpS residues 2-106 (crystals of Schuenemann et al., 2009, re-refined here) (natural protein, UniProt P0A8Q6 2-106, looked up)
chain: GKTNDWLDFDQLAEEKVRDALKPPSMYKVILVNDDYTPMEFVIDVLQKFFSYDVERATQLMLAVHYQGKAICGVFTAEVAETKVAMVNKYARENEHPLLCTLEKA
- binding result (crystal structure): binds

B2: H66A: H66A mutation of ClpS (protein, UniProt P0A8Q6 1-106, looked up, variant H66A)
ATP-dependent Clp protease …: MGKTNDWLDFDQLAEEKVRDALKPPSMYKVILVNDDYTPMEFVIDVLQKFFSYDVERATQLMLAVAYQGKAICGVFTAEVAETKVAMVNKYARENEHPLLCTLEKA
- KM and Vmax for ClpAP degradation of N-end-rule substrates (ClpAP [1]): increased KM and reduced Vmax

B3: ^Q12CClpS: Q12C ClpS variant, FeBABE attached to residue 12 (protein, UniProt P0A8Q6 1-106, looked up, variant Q12C)
ATP-dependent Clp protease …: MGKTNDWLDFDCLAEEKVRDALKPPSMYKVILVNDDYTPMEFVIDVLQKFFSYDVERATQLMLAVHYQGKAICGVFTAEVAETKVAMVNKYARENEHPLLCTLEKA
modifications: FeBABE attached at Cys12
- FeBABE cleavage requirement (ClpA): cleavage of ClpA required FeBABE-modified ^Q12CClpS and ATPγS

B4: ClpS: E. coli ClpS adaptor; folded core (residues 26-106) and N-terminal extension (residues 1-25) (protein, UniProt P0A8Q6 1-106, looked up)
ATP-dependent Clp protease …: MGKTNDWLDFDQLAEEKVRDALKPPSMYKVILVNDDYTPMEFVIDVLQKFFSYDVERATQLMLAVHYQGKAICGVFTAEVAETKVAMVNKYARENEHPLLCTLEKA
- K2 (unimolecular engagement step, global fit) (ClpAP [2]): 0.37
- degradation by ClpAP (ClpAP [3]): does not degrade
